Where two headings read alike, the source gives them in different places.
What was measured:
[1] = molecular target: T1, Brf1 (TFIIB-related factor, subunit of TFIIIB) (S. cerevisiae, UniProt P29056 1-596); assay: native gel or EMSA
T1 sequence (looked up): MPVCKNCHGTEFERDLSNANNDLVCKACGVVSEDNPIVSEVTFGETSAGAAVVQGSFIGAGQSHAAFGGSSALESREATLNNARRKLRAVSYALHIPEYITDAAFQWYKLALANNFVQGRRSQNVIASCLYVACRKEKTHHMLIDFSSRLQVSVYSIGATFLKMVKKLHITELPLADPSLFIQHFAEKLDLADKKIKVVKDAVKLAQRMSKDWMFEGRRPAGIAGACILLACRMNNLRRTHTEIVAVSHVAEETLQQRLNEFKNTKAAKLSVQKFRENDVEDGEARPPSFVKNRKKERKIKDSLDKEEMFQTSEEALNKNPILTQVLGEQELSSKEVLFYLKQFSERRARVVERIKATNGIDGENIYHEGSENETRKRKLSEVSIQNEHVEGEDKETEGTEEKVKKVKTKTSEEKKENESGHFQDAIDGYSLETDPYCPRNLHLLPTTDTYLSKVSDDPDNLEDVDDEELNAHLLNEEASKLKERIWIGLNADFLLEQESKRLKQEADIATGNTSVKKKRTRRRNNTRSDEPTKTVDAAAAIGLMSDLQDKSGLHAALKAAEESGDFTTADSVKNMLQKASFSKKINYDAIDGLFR

[2] = molecular target: T2, TBPm3 (altered specificity TATA-binding protein mutant) (UniProt P13393 1-240, I194F;V203T;L205V); assay: EMSA kinetics
T2 sequence: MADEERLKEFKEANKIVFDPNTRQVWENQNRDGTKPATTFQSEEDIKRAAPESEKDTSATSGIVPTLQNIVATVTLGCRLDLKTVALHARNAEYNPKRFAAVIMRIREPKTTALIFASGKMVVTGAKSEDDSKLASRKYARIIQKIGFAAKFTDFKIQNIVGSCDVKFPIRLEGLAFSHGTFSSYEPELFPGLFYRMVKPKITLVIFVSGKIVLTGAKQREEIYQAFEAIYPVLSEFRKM

[3] = molecular target: T2, TBPm3 (altered specificity TATA-binding …); assay: EMSA kinetics; remark: listed apart in the source
[4] = molecular target: T2, TBPm3 (altered specificity TATA-binding …); assay: MPE-Fe

B1: TBPm3 (altered specificity TATA-binding protein mutant) (natural protein, S. cerevisiae, UniProt P13393 1-240, looked up)
chain: MADEERLKEFKEANKIVFDPNTRQVWENQNRDGTKPATTFQSEEDIKRAAPESEKDTSATSGIVPTLQNIVATVTLGCRLDLKTVALHARNAEYNPKRFAAVIMRIREPKTTALIFASGKMVVTGAKSEDDSKLASRKYARIIQKIGFAAKFTDFKIQNIVGSCDVKFPIRLEGLAFSHGTFSSYEPELFPGLFYRMVKPKITLVIFVSGKIVLTGAKQREEIYQAFEAIYPVLSEFRKM
binding result [1]: binds

B2: TGTA probe, 26 bp (dsDNA)
DNA 1: CGTGACTACTGTAAATAGATGATCCG
DNA 2: CGGATCATCTATTTACAGTAGTCACG
Kd [2]: 0.6 nM

B3: TATA probe (U6 TATA box), 26 bp (dsDNA)
DNA 1: CGTGACTACTATAAATAGATGATCCG
DNA 2: CGGATCATCTATTTATAGTAGTCACG
Kd [3]: 0.3 nM

B4: 76 bp DNA with favored sequence TGTAAATTG (dsDNA)
DNA 1: CGCTGCAATCTCTTTTTCAATTGCTCCGGACTGTAAATTGGCGGTCCCTTACTCTTTCCTCAACAATTAACGGCCC
DNA 2: GGGCCGTTAATTGTTGAGGAAAGAGTAAGGGACCGCCAATTTACAGTCCGGAGCAATTGAAAAAGAGATTGCAGCG
binding result [4]: binds
